Results: patent US20240165282A1, “CONFORMATIONAL CONSTRAINED SOMATOSTATIN RECEPTOR 3 PEPTIDE LIGANDS AND THEIR CONJUGATES AND USES THEREOF” (STARGET PHARMA LTD., priority 2021, published 2024)
*1 amine or outer side, *2 acyl side, *3 side chain or, on linkers, in order; H or OH if unused. Bridges are numbered along the chain shown (N, C = ends). [ ]: non-standard residue; d: D form. The star is where a group is joined. DOTA = O=C(O)CN1CCN(CC(=O)O)CCN(CC(=O)*)CCN(CC(=O)O)CC1; N(2-mercaptoethyl)Gly = O=C(CN(CCS[*:3])[*:1])[*:2]; Glutaryl = O=C(CCCC(=O)[*:2])[*:1]; Orn = NCCC[C@H](N)C(=O)O; Aoc = NCCCCCCCC(=O)O; CPT = camptothecin

Experiments:
Assay in all cases: 125I-Tyr11-SRIF-14 displacement
[1] = biological target: human cloned somatostatin receptor 3 (human) (UniProt P32745)
human cloned somatostatin receptor 3 (human), sequence (P32745 whole entry): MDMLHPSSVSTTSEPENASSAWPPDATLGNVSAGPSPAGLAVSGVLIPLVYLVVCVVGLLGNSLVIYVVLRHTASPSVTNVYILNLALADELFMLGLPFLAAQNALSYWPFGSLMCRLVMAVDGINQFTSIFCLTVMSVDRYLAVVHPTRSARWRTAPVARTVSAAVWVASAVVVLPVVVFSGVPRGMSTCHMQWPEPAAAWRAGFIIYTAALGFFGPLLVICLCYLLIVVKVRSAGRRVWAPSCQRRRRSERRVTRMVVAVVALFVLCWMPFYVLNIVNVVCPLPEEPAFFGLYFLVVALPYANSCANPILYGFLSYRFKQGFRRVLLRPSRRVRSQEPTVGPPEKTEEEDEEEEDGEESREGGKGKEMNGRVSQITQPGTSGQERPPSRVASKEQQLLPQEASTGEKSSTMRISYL

[2] = biological target: human cloned somatostatin receptor 4 (human) (UniProt P31391)
human cloned somatostatin receptor 4 (human), sequence (P31391 whole entry): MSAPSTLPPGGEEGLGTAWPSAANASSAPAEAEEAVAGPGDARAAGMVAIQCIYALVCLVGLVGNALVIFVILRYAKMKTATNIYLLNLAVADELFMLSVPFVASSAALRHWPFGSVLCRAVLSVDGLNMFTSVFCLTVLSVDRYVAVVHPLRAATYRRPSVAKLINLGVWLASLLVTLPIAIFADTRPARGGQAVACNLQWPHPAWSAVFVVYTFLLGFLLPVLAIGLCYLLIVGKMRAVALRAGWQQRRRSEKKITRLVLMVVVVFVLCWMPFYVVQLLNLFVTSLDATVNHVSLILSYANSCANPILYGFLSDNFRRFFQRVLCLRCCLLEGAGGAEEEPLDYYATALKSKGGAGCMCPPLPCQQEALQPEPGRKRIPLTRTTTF

[3] = biological target: human cloned somatostatin receptor 5 (human) (UniProt P35346)
human cloned somatostatin receptor 5 (human), sequence (P35346 whole entry): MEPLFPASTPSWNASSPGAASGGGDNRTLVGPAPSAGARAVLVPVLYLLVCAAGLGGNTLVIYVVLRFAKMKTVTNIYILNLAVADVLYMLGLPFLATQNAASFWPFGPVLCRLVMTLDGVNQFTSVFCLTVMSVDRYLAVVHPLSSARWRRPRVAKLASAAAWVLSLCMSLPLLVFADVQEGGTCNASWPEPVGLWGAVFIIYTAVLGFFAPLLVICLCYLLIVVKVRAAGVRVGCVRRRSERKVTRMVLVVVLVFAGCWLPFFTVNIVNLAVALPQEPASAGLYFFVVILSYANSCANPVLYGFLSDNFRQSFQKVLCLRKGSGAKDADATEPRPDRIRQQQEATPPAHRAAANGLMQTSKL

[4] = biological target: human cloned somatostatin receptor 2 (human) (UniProt P30874)
human cloned somatostatin receptor 2 (human), sequence (P30874 whole entry): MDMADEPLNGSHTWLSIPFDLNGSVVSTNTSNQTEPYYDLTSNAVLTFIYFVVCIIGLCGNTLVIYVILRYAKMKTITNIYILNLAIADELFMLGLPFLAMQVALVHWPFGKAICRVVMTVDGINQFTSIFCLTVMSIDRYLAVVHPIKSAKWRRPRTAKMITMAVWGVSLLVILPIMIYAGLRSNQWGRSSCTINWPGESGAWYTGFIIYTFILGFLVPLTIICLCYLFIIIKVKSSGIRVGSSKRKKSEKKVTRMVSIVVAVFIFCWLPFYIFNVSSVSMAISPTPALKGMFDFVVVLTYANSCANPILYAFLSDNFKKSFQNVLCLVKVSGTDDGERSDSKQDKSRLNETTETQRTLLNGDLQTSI

[5] = biological target: human cloned somatostatin receptor 1 (human) (UniProt P30872)
human cloned somatostatin receptor 1 (human), sequence (P30872 whole entry): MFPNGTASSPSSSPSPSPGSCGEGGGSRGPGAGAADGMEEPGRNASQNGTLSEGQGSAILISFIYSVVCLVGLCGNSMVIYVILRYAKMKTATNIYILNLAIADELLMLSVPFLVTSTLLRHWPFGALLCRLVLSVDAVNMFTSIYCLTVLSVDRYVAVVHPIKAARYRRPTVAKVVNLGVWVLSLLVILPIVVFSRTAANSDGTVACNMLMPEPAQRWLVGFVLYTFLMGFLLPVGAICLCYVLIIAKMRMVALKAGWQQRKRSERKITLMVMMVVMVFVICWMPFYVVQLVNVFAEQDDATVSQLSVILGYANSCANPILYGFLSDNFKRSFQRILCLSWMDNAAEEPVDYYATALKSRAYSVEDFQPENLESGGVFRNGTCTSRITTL

{CPT-Aoc}-[dF]RCF[dW]KTF[N(2-mercaptoethyl)Gly]-NH2 (disulfide 3-9) [SEQ ID NO: 27] was tested, and the % displacement at 1 nM [1] was 12%, the % displacement at 10 nM [1] was 51% and the % displacement at 1 nM [2] was 0%. It also gave a % displacement at 10 nM [2] of 0%, a % displacement at 1 nM [3] of 0% and a % displacement at 10 nM [3] of 0%. The % displacement at 1 nM [4] was 0%, the % displacement at 10 nM [4] was 0% and the % displacement at 1 nM [5] was 0%. For the same binder, the % displacement at 10 nM [5] was 3%.

For {Niraparib-Glutaryl}-[dF]RCF[dW]KTF[N(2-mercaptoethyl)Gly]-NH2 (disulfide 3-9) [SEQ ID NO: 28], the % displacement at 1 nM [1] was 28%, the % displacement at 10 nM [1] was 79% and the % displacement at 1 nM [2] was 0%. It also gave a % displacement at 10 nM [2] of 0%, a % displacement at 1 nM [3] of 0% and a % displacement at 10 nM [3] of 0%. For the same binder, the % displacement at 1 nM [4] was 0%, the % displacement at 10 nM [4] was 0% and the % displacement at 1 nM [5] was 12%. The % displacement at 10 nM [5] was 23%.

B1: SEQ ID NO: 26 (peptide)
peptide: H-XRCF[dW]KTY[N(2-mercaptoethyl)Gly]-NH2
modifications: disulfide 3-9; not fully specified (residue 1); printed as H-Phe1-Arg2-Cys3-Phe4-D-Trp5-Lys6-Thr7-Tyr8-NTEG9-NH2 (cyclo 3-9)
With B1 the % displacement at 1 nM [1] was 53%, the % displacement at 10 nM [1] was 86% and the % displacement at 1 nM [2] was 0%. It also gave a % displacement at 10 nM [2] of 0%, a % displacement at 1 nM [3] of 0% and a % displacement at 10 nM [3] of 1%. It also gave a % displacement at 1 nM [4] of 0%, a % displacement at 10 nM [4] of 0% and a % displacement at 1 nM [5] of 0%. It also gave a % displacement at 10 nM [5] of 24%.

B2: SEQ ID NO: 25 (peptide)
peptide: {DOTA}-[dF]RCY[dW]KTF[N(2-mercaptoethyl)Gly]-NH2
modifications: disulfide 3-9
SMILES: C[C@@H](O)[C@@H]1NC(=O)[C@H](CCCCN)NC(=O)[C@@H](Cc2c[nH]c3ccccc23)NC(=O)[C@H](Cc2ccc(O)cc2)NC(=O)[C@@H](NC(=O)[C@H](CCCNC(=N)N)NC(=O)[C@@H](Cc2ccccc2)NC(=O)CN2CCN(CC(=O)O)CCN(CC(=O)O)CCN(CC(=O)O)CC2)CSSCCN(CC(N)=O)C(=O)[C@H](Cc2ccccc2)NC1=O
Work on B2 yielded a % displacement at 1 nM [1] of 65%, a % displacement at 10 nM [1] of 94% and a % displacement at 1 nM [2] of 5%. For the same binder, the % displacement at 10 nM [2] was 8%, the % displacement at 1 nM [3] was 6% and the % displacement at 10 nM [3] was 16%. The % displacement at 1 nM [4] was 0%, the % displacement at 10 nM [4] was 0% and the % displacement at 1 nM [5] was 1%. For the same binder, the % displacement at 10 nM [5] was 15%.

B3: SEQ ID NO: 22 (peptide)
peptide: {DOTA}-[dF]EE[Orn]CF[dW]KTF[N(2-mercaptoethyl)Gly]-NH2
modifications: disulfide 5-11
SMILES: C[C@@H](O)[C@@H]1NC(=O)[C@H](CCCCN)NC(=O)[C@@H](Cc2c[nH]c3ccccc23)NC(=O)[C@H](Cc2ccccc2)NC(=O)[C@@H](NC(=O)[C@H](CCCN)NC(=O)[C@H](CCC(=O)O)NC(=O)[C@H](CCC(=O)O)NC(=O)[C@@H](Cc2ccccc2)NC(=O)CN2CCN(CC(=O)O)CCN(CC(=O)O)CCN(CC(=O)O)CC2)CSSCCN(CC(N)=O)C(=O)[C@H](Cc2ccccc2)NC1=O
Binder B3 has a % displacement at 1 nM [1] of 0%, a % displacement at 10 nM [1] of 49% and a % displacement at 1 nM [2] of 0%. It also gave a % displacement at 10 nM [2] of 3%, a % displacement at 1 nM [3] of 0% and a % displacement at 10 nM [3] of 0%. It also gave a % displacement at 1 nM [4] of 0%, a % displacement at 10 nM [4] of 0% and a % displacement at 1 nM [5] of 8%. It also gave a % displacement at 10 nM [5] of 7%.

B4: SEQ ID NO: 23 (peptide)
peptide: {DOTA}-[dF]E[Orn]CF[dW]KTF[N(2-mercaptoethyl)Gly]-NH2
modifications: disulfide 4-10
SMILES: C[C@@H](O)[C@@H]1NC(=O)[C@H](CCCCN)NC(=O)[C@@H](Cc2c[nH]c3ccccc23)NC(=O)[C@H](Cc2ccccc2)NC(=O)[C@@H](NC(=O)[C@H](CCCN)NC(=O)[C@H](CCC(=O)O)NC(=O)[C@@H](Cc2ccccc2)NC(=O)CN2CCN(CC(=O)O)CCN(CC(=O)O)CCN(CC(=O)O)CC2)CSSCCN(CC(N)=O)C(=O)[C@H](Cc2ccccc2)NC1=O
B4 showed a % displacement at 1 nM [1] of 19%, a % displacement at 10 nM [1] of 56% and a % displacement at 1 nM [2] of 0%. The % displacement at 10 nM [2] was 0%, the % displacement at 1 nM [3] was 0% and the % displacement at 10 nM [3] was 0%. For the same binder, the % displacement at 1 nM [4] was 0%, the % displacement at 10 nM [4] was 0% and the % displacement at 1 nM [5] was 4%. For the same binder, the % displacement at 10 nM [5] was 6%.
